Each block holds one binder with its values, some of them ahead of it. Where no end group is shown, it is not given here.
B2: His-menin (natural protein, UniProt O00255-2 1-610, looked up)
chain: MGLKAAQKTLFPLRSIDDVVRLFAAELGREEPDLVLLSLVLGFVEHFLAVNRVIPTNVPELTFQPSPAPDPPGGLTYFPVADLSIIAALYARFTAQIRGAVDLSLYPREGGVSSRELVKKVSDVIWNSLSRSYFKDRAHIQSLFSFITGTKLDSSGVAFAVVGACQALGLRDVHLALSEDHAWVVFGPNGEQTAEVTWHGKGNEDRRGQTVNAGVAERSWLYLKGSYMRCDRKMEVAFMVCAINPSIDLHTDSLELLQLQQKLLWLLYDLGHLERYPMALGNLADLEELEPTPGRPDPLTLYHKGIASAKTYYRDEHIYPYMYLAGYHCRNRNVREALQAWADTATVIQDYNYCREDEEIYKEFFEVANDVIPNLLKEAASLLEAGEERPGEQSQGTQSQGSALQDPECFAHLLRFYDGICKWEEGSPTPVLHVGWATFLVQSLGRFEGQVRQKVRIVSREAEAAEAEEPWGEEAREGRRRGPRRESKPEEPPPPKKPALDKGLGTGQGAVSGPPRKPPGTVAGTARGPEGGSTAQVPAPTASPPPEGPVLTFQSEKMKGMKELLVATKINSSAIKLQLTAQSQVQMKKQKVSTPSDYTLSFLKRQRKGL

How the values were obtained:
[1] = molecular target: B2; assay: co-IP
[2] = molecular target: GST-Daxx (UniProt Q9UER7 1-740); assay: pull-down
Chain of GST-Daxx (Q9UER7 whole entry): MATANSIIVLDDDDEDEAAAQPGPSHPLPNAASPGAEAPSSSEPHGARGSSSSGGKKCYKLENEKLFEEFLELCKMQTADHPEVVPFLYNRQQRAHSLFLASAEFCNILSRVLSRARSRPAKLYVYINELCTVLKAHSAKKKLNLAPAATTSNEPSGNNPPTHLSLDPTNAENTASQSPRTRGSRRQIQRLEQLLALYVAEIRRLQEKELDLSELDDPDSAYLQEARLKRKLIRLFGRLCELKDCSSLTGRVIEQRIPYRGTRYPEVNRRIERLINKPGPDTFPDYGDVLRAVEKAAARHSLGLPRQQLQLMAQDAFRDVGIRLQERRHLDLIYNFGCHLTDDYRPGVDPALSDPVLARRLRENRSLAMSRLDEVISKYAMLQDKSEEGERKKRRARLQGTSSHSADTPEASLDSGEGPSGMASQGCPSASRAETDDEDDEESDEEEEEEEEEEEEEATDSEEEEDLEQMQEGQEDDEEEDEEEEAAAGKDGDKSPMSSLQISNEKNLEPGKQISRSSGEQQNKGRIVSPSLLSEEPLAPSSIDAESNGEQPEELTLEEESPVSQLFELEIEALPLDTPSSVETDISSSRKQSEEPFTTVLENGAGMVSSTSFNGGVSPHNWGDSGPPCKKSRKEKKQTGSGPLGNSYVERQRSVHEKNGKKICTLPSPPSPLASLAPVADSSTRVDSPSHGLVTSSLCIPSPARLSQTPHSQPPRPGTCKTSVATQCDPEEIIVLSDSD

[3] = molecular target: His-Daxx (183–398) (UniProt Q9UER7 183-398); assay: pull-down

binding result [1]: binds
B1: His-Daxx (183–260) (domain or fragment, UniProt Q9UER7 183-260, looked up)
chain: GSRRQIQRLEQLLALYVAEIRRLQEKELDLSELDDPDSAYLQEARLKRKLIRLFGRLCELKDCSSLTGRVIEQRIPYR

Binder: B2
binding result [2]: binds

binding result [3]: binds
Binder: GTCKWEEGSPTPVLHVGWATQSE (also: biotinylated) [biotinylated menin peptide GTCKWEEGSPTPVLHVGWATQSE]

Reference: paper PMC5243199 (Cancer research, 2016)
